The test addresses T1, uPAR蛋白 (尿激酶型纤溶酶原激活物受体, R&D Systems 807-UK-100) (UniProt Q03405 23-303, limits assumed).
T1 construct: Bought protein; also called 抗原uPAR
Kind of test: SPR, Biacore 3000, CM5 chip, HBS-EP pH 7.4, 0-100 nmol/L, mean of 3 repeats.

T1 sequence (Q03405 23-303 limits assumed): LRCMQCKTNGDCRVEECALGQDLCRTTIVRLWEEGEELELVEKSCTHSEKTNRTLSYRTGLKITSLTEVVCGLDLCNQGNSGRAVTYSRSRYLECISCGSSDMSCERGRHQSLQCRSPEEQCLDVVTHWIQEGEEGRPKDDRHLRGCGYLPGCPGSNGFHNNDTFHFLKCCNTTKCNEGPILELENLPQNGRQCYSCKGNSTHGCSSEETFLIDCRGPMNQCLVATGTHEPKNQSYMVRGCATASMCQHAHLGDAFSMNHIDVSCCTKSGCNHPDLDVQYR

B1: 抗uPAR人源化抗体Y2B (antibody, V domains shown)
VH: EVQLVQSGAEVKKPGSSVKVSCKASGYTFTDYYIHWVRQAPGQGLEWIGWIFHGSDNTEYNEKFKSKATITADESTSTAYMELSSLRSEDTAVFYCARWGPHWYFDAWGRGTLVTVSP
VL: DIQMTQSPSTLSASVGDRVTITCRASSSVSYIHWYQQKPGRAPKPLMYEASSRATGVPSRFSGSGSGTEYTLTISSLQSDDFATYYCQQWNYPFTFGQGTKLEIKR
notes: also called 抗uPAR抗体Y2B; Y2B抗体
What is called Kd is the concentration at which binding is half-saturated. Read a low Kd as tighter binding. Turning to B1, the Kd came to 14.9 nM.
